# Reference: PMC6557900 (Nature Communications, 2019)
# Where no end group is shown, it is not given here. [ ]: non-standard residue; d: D form. pY = N[C@@H](Cc1ccc(OP(=O)(O)O)cc1)C(=O)O
# B1: EpoR_pY426 peptide, alanine at pY(+6) (peptide)
# chain: ASFE[pY]TILDPA-NH2
# modifications: N-terminus assumed
# SMILES: CC[C@H](C)[C@H](NC(=O)[C@@H](NC(=O)[C@H](Cc1ccc(OP(=O)(O)O)cc1)NC(=O)[C@H](CCC(=O)O)NC(=O)[C@H](Cc1ccccc1)NC(=O)[C@H](CO)NC(=O)[C@H](C)N)[C@@H](C)O)C(=O)N[C@@H](CC(C)C)C(=O)N[C@@H](CC(=O)O)C(=O)N1CCC[C@H]1C(=O)N[C@@H](C)C(N)=O
# B2: EpoR_pY426 peptide, alanine at pY(+1) (peptide)
# chain: ASFE[pY]AILDPS-NH2
# modifications: N-terminus assumed
# SMILES: CC[C@H](C)[C@H](NC(=O)[C@H](C)NC(=O)[C@H](Cc1ccc(OP(=O)(O)O)cc1)NC(=O)[C@H](CCC(=O)O)NC(=O)[C@H](Cc1ccccc1)NC(=O)[C@H](CO)NC(=O)[C@H](C)N)C(=O)N[C@@H](CC(C)C)C(=O)N[C@@H](CC(=O)O)C(=O)N1CCC[C@H]1C(=O)N[C@@H](CO)C(N)=O
# B3: GHR_pY487 phosphopeptide (growth hormone receptor) (peptide)
# peptide: NIDF[pY]AQVSDI-NH2
# notes: growth hormone receptor (GHR), 11-residue peptide around pY487; source: synthetic peptide (solid-phase, Fmoc, Rink amide resin), HPLC purified
# Target: T1, SOCS2-ElonginB-ElonginC complex, wild-type (human | , UniProt O14508 32-198; Q15370 1-104; Q15369 17-112)
# Assay: 19F ligand-observed CPMG NMR displacement assay; peptide (GHR 10 μM, EpoR 50 μM) displaces the fluorinated pY analog spy molecule 3 (100 μM) from SBC (5 μM); 20 mM HEPES pH 8, 50 mM NaCl, 1 mM DTT, 20% D2O, 298 K
# Conditions: both partners purified
row,Binder,Ki
1,"ASFE[pY]TILAPS-NH2 [EpoR_pY426 peptide, alanine at pY(+4)]",14.1 µM
2,"ASFE[pY]TIADPS-NH2 [EpoR_pY426 peptide, alanine at pY(+3)]",20.4 µM
3,"PVPD[pY]ASIHIV-NH2 [GHR_pY595 peptide, alanine at pY(+1)]",0.5 µM
4,"ASFE[pY]TILDAS-NH2 [EpoR_pY426 peptide, alanine at pY(+5)]",6.9 µM
5,PRPD[pY]TSIHIV-NH2 [GHR_pY595 peptide V(−3)R],20.6 µM
6,PYPD[pY]TSIHIV-NH2 [GHR_pY595 peptide V(−3)Y],3.3 µM
7,"PVPD[pY]TSAHIV-NH2 [GHR_pY595 peptide, alanine at pY(+3)]",3.4 µM
8,B1,11.3 µM
9,"PAPD[pY]TSIHIV-NH2 [GHR_pY595 peptide, alanine at pY(−3)]",3.4 µM
10,"ASFA[pY]TILDPS-NH2 [EpoR_pY426 peptide, alanine at pY(−1)]",23.5 µM
11,"PVPD[pY]TSIAIV-NH2 [GHR_pY595 peptide, alanine at pY(+4)]",18.5 µM
12,"ASFE[pY]TALDPS-NH2 [EpoR_pY426 peptide, alanine at pY(+2)]",17.2 µM
13,B2,10.3 µM

# Target: T2, SOCS2-ElonginB-ElonginC complex, wild-type (human | , UniProt O14508 32-198; Q15370 1-104; Q15369 17-112)
# T2 construct: Untagged in ITC and NMR; also called SBC; wild-type SBC; source: E. coli BL21(DE3), co-expressed, purified (HisTrap, TEV cleavage, second HisTrap, SEC Superdex 75); not shown: His6, N-terminal, cleaved; copies: + +
# Assay: ITC; peptide (750 or 1500 μM) titrated into SBC (50 μM); 100 mM HEPES pH 7.5, 50 mM NaCl, 0.5 mM TCEP, 298 K; one-set-of-site model
# Conditions: both partners purified
# T2 sequence (O14508 32-198, chain 1 of 3): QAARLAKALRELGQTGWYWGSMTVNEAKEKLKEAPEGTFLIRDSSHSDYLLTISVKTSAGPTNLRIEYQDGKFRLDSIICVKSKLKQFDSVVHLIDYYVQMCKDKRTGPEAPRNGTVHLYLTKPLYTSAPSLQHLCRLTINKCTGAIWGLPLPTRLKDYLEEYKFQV
# T2 sequence (Q15370 1-104, chain 2 of 3): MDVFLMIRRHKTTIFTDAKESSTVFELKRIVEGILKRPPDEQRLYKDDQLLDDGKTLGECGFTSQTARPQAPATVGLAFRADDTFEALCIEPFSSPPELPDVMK
# T2 sequence (Q15369 17-112, chain 3 of 3): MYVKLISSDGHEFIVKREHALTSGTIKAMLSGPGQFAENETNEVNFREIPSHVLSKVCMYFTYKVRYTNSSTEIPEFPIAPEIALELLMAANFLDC
row,Binder,Kd
1,B3,2.3 µM

# Target: T3, SOCS2(L106V)-ElonginB-ElonginC complex (human | , UniProt O14508 32-198; Q15370 1-104; Q15369 17-112, L106V)
# T3 construct: also called SBC L106V; source: E. coli BL21(DE3), co-expressed, purified (as wild-type SBC); not shown: His6, N-terminal, cleaved; copies: + +
# Assay: SPR; biotinylated SBC (wild-type or mutant) immobilised, peptide injected at 0.08-60 μM; 20 mM HEPES pH 7.5, 150 mM NaCl, 1 mM TCEP, 0.005% Tween20, 10 °C; steady-state affinity, 1:1 model
# Conditions: both partners purified
# T3 sequence (O14508 32-198 L106V, chain 1 of 3): as the sequence (O14508 32-198, chain 1 of 3) above, with L75V counted along it
# T3 sequence (Q15370 1-104, chain 2 of 3): as the sequence (Q15370 1-104, chain 2 of 3) above
# T3 sequence (Q15369 17-112, chain 3 of 3): as the sequence (Q15369 17-112, chain 3 of 3) above
row,Binder,Kd
1,B3,8.9 µM

# Target: T2, SOCS2-ElonginB-ElonginC complex, …
# Assay: as above
# Conditions: both partners purified
row,Binder,Kd
1,B3,5.1 µM

# Target: T4, SOCS2(C133Y)-ElonginB-ElonginC complex (human | , UniProt O14508 32-198; Q15370 1-104; Q15369 17-112, C133Y)
# T4 construct: also called SBC C133Y; source: E. coli BL21(DE3), co-expressed, purified (as wild-type SBC); not shown: His6, N-terminal, cleaved; copies: + +
# Assay: as above
# Conditions: both partners purified
# T4 sequence (O14508 32-198 C133Y, chain 1 of 3): as the sequence (O14508 32-198, chain 1 of 3) above, with C102Y counted along it
# T4 sequence (Q15370 1-104, chain 2 of 3): as the sequence (Q15370 1-104, chain 2 of 3) above
# T4 sequence (Q15369 17-112, chain 3 of 3): as the sequence (Q15369 17-112, chain 3 of 3) above
row,Binder,Kd
1,B3,7.7 µM

# Target: T1, SOCS2-ElonginB-ElonginC complex, …
# Assay: as above
# Conditions: both partners purified
# T1 sequence (O14508 32-198, chain 1 of 3): as the sequence (O14508 32-198, chain 1 of 3) above
# T1 sequence (Q15370 1-104, chain 2 of 3): as the sequence (Q15370 1-104, chain 2 of 3) above
# T1 sequence (Q15369 17-112, chain 3 of 3): as the sequence (Q15369 17-112, chain 3 of 3) above
row,Binder,Kd
1,"ASFE[pY]TILAPS-NH2 [EpoR_pY426 peptide, alanine at pY(+4)]",18 µM
2,"ASFE[pY]TIADPS-NH2 [EpoR_pY426 peptide, alanine at pY(+3)]",32.3 µM
3,"PVPD[pY]ASIHIV-NH2 [GHR_pY595 peptide, alanine at pY(+1)]",1 µM
4,"PVPD[pY]TSIHIA-NH2 [GHR_pY595 peptide, alanine at pY(+6)]",1.9 µM
5,"ASFE[pY]TILDAS-NH2 [EpoR_pY426 peptide, alanine at pY(+5)]",8.9 µM
6,PRPD[pY]TSIHIV-NH2 [GHR_pY595 peptide V(−3)R],9 µM
7,PYPD[pY]TSIHIV-NH2 [GHR_pY595 peptide V(−3)Y],3.3 µM
8,"PVPD[pY]TSAHIV-NH2 [GHR_pY595 peptide, alanine at pY(+3)]",3.7 µM
9,B1,16.4 µM
10,"ASFA[pY]TILDPS-NH2 [EpoR_pY426 peptide, alanine at pY(−1)]",21.7 µM
11,"PVPD[pY]TSIAIV-NH2 [GHR_pY595 peptide, alanine at pY(+4)]",6.7 µM
12,"ASFE[pY]TALDPS-NH2 [EpoR_pY426 peptide, alanine at pY(+2)]",30.8 µM
13,B2,17.1 µM
